Test results: patent publication US20240076361A1

Target: Tau from human Alzheimer's Disease brain lysate (Braak stage VI) (human), P10636
Assay: ELISA on Tau captured from AD brain lysate, curve without blocking peptide
Settings: remark: other sources report otherwise

Chain of Tau from human Alzheimer's Disease brain lysate (Braak stage VI) (human), P10636 (P10636 other isoform, or with tags, fused parts or gaps limits assumed): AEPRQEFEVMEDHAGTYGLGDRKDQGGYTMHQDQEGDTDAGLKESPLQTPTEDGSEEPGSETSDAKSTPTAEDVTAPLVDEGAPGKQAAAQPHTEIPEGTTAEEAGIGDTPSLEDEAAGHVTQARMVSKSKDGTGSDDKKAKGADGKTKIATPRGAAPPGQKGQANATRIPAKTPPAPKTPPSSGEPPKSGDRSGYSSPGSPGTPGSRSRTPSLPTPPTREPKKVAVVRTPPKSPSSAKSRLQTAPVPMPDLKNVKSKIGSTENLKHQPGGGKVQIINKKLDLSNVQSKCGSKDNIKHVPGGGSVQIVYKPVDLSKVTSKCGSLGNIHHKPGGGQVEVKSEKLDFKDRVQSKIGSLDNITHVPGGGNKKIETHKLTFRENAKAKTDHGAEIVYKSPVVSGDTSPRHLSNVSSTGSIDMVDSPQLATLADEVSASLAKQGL

- EC50 (read off the curve): 20 pM
B1: PT3 comparator antibody (antibody)
chain 1: EVKLVESGGDLVKPGGSLKLSCAASGFTFSSYAMSWVRQNPEKRLEWVASISKGGNTYYPNSVKGRFTISRDNARNILYLQMSSLRSEDTALYYCARGWGDYGWFAYWGQVTLVTVSA
chain 2: DIKMTQSPSSMYASLGERVTITCKASQDINRYLNWFQQKPGKSPKTLIYRANRLLDGVPSRFSGSGSGQDYSLTISSLDYEDMGIYYCLQYDEFPLTFGDGTKLELK
modifications: here or on the partner: native phosphorylation and other post-translational modifications, not defined
